Assay results: patent publication US20030228627A1, “Assay for p53 function in cells” (priority 2002, published 2003)

Molecular target: Full-length human histidine-tagged p300 (human) (UniProt Q09472)
Assay: cell-based or functional assay

Full-length human histidine-tagged p300 (human), sequence (Q09472 2-2414): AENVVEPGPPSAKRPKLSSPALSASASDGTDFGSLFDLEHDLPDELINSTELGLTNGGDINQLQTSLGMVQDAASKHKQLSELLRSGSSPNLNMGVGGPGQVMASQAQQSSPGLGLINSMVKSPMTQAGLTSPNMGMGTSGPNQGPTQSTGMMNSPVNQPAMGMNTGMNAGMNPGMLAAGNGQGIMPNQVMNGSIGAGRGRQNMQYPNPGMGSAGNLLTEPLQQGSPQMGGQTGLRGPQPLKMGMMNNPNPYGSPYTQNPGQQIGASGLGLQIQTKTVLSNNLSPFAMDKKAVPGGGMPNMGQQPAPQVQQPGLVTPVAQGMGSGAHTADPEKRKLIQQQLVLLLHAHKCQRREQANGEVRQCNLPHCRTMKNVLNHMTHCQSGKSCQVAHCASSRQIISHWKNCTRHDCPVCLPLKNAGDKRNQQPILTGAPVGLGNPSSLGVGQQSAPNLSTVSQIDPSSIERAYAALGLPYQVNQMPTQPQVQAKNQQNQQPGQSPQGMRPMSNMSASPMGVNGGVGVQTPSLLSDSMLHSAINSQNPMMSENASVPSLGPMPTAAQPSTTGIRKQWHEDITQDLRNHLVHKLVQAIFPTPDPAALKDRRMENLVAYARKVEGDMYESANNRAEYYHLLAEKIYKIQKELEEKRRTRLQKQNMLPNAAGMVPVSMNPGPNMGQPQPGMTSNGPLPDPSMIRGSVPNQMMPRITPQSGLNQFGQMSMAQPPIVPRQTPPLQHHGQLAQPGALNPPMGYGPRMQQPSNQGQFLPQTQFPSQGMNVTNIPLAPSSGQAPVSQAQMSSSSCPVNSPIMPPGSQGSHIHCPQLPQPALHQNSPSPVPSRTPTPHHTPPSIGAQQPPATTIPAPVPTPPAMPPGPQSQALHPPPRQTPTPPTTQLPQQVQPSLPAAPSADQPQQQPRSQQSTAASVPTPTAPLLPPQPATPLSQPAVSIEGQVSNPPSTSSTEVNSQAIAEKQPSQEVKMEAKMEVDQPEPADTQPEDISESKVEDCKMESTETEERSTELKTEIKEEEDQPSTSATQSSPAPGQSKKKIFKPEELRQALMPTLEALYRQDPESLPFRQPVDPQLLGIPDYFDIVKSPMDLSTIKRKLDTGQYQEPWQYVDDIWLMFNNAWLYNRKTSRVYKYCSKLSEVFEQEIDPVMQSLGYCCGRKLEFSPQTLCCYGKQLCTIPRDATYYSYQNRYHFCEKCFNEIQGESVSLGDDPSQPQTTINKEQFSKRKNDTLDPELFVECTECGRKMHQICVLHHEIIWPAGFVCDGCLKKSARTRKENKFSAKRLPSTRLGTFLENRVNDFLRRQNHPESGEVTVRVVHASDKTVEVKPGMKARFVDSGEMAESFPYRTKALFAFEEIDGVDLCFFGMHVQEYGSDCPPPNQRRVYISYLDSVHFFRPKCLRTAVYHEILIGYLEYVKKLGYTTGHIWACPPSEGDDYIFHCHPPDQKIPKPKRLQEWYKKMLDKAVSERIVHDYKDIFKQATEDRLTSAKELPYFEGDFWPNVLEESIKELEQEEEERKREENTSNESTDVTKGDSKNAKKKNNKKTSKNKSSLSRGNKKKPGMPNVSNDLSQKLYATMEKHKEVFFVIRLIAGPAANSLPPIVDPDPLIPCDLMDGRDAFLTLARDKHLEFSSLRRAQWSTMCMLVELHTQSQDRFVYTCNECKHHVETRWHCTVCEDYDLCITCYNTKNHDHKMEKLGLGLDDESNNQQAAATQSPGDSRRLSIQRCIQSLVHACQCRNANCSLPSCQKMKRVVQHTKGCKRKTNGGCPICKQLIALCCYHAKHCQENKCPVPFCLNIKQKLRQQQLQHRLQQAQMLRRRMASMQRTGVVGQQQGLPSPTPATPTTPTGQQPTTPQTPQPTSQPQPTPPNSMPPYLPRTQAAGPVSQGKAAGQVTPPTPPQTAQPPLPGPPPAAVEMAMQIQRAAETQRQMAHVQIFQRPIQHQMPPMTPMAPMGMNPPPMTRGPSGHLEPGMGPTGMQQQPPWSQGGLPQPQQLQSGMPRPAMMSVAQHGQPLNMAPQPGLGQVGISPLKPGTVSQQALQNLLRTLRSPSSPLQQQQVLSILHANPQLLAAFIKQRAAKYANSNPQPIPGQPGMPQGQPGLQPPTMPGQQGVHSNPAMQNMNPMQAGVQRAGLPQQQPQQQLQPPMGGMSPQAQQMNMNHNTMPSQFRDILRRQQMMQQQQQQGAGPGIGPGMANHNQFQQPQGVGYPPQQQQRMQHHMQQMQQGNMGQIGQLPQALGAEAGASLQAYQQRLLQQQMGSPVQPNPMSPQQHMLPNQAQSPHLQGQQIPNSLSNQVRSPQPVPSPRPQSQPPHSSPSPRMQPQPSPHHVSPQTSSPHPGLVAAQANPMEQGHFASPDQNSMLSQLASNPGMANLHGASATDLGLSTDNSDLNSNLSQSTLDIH

increased acetylation in a distal region 2 kb downstream of the proximal promoter of the p21-LUC plasmid (in vitro chromatin immunoprecipitation with anti-acetyl-H4): 1.4 fold | increased acetylation near the 3' p53 binding site of the p21-LUC plasmid (in vitro chromatin immunoprecipitation with anti-acetyl-H4): 3.4 fold
Substance: Full-length human Flag-tagged p53 (native, unacetylated) (from UniProt P04637 1-393)
